Test results: patent US7655420B2, “Methods to increase or decrease bone density” (Celltech R & D, Inc., priority 2002, dated 2010)

How the values were obtained:
[1] = test system: type I collagen synthesis in hMSC cells; assay: synthesis of collagen type I in hMSC cells (Prolagen C ELISA); format: cell-based, human
Method: FIG. 13 illustrates that partially purified preparations of human sclerostin reduce the synthesis of type I collagen by about 50% in cells treated with 10 μg/ml of sclerostin (p<0.001 to control). hMSC cells were cultured in Osteoblast-Inducing media and treated with partially-purified sclerostin protein or proteins purified from Sf9 conditioned media (Control) for 21 days. Sclerostin or Control at the indicated concentrations was added 8 days after plating.
hMSC cells were plated in 96-well tissue culture dishes at a density of 10,000 cells/cm^2 in Osteoblast-Inducing medium. Partially purified preparations of baculovirus-expressed sclerostin protein were prepared in sterile PBS using NAP-5 columns prior to use. Human sclerostin protein (0 to 30 μg/ml) or an equal volume of Sf9 conditioned media (Control) was added to cultures of hMSC cells at various times after plating (1 day, 8 days, 15 days, or 21 days). The effects of sclerostin on osteoblastic differentiation were assessed by measuring alkaline phosphatase activity (ALP, determined in cell layers using DEAA buffer (Pierce) containing 0.5% NP-40 and 10 mM p-nitrophenylphosphate), synthesis of collagen type I (Prolagen C ELISA), and calcium deposition for mineralization (colorimetric assay of acid lysates of cell layers, Sigma).

apoptosis genes = assay: Apoptosis Gene Array of hMSC treated with sclerostin; format: cell-based, human
Method: In another study, hMSC were treated with vehicle or sclerostin for 6 hrs or 48 hrs. Cells were harvested, RNA prepared and used for the analysis of a commercially available Apoptosis Gene Array (SuperArray, Bethesda, Md.). To further investigate the effects of sclerostin on the apoptosis of hMSC, RNA was harvested from vehicle and sclerostin-treated cells and used the RNA to probe a cDNA expression array containing apoptosis genes. The results for vehicle and sclerostin-treated samples were compared and data (corrected for background) were expressed as a ratio of sclerostin to vehicle.

[2] = hMSC, 6 hrs, Anti-apoptotic gene
[3] = hMSC, 48 hrs, Anti-apoptotic gene
[4] = hMSC, 48 hrs, Proapoptotic gene

B1: sclerostin: partially purified baculovirus-expressed human sclerostin protein, SOST gene product (SEQ ID NO:3); also made with a FLAG tag (protein, listed as Homo sapiens)
chain: MQLPLALCLVCLLVHTAFRVVEGQGWQAFKNDATEIIPELGEYPEPPPELENNKTMNRAENGGRPPHHPFETKDVSEYSCRELHFTRYVTDGPCRSAKPVTELVCSGQCGPARLLPNAIGRGKWWRPSGPDFRCIPDRYRAQRVQLLCPGGEAPRARKVRLVASCKCKRLTRFHNQSELKDFGTEAARPQKGRKPRPRARSAKANQAELENAY
modifications: optional FLAG tag
reduction of synthesis of type I collagen ([1]; hMSC cells, 10 μg/ml of sclerostin, 21 days, p<0.001 to control): about 50%
synthesis of collagen type I, dose dependence ([1]; hMSC cultures): decreased in a dose-dependent manner
increase in the expression of apoptosis-associated genes and genes involved in cell survival (apoptosis genes; hMSC treated for 6 hrs with sclerostin): 2 to 4 fold
Ratio of sclerostin to vehicle, Bruce (apoptosis genes; [2]): 1.45 ± 0.75
Ratio of sclerostin to vehicle, Survivin, IAP2 (apoptosis genes; [2]): 1.32 ± 0.48
Ratio of sclerostin to vehicle, XIAP (apoptosis genes; [2]): 2.01 ± 0.64
Ratio of sclerostin to vehicle, BAX (apoptosis genes; hMSC, 6 hrs, Proapoptotic gene): 1.53 ± 0.2
Ratio of sclerostin to vehicle, Bcl10 (apoptosis genes; hMSC, 6 hrs, Proapoptotic gene): 4.09 ± 2.13
Ratio of sclerostin to vehicle, Caspase 3 (apoptosis genes; hMSC, 6 hrs, Proapoptotic gene): 2.46 ± 0.69
Ratio of sclerostin to vehicle, Caspase 4 (apoptosis genes; hMSC, 6 hrs, Proapoptotic gene): 1.83 ± 1.12
Ratio of sclerostin to vehicle, Caspase 7 (apoptosis genes; hMSC, 6 hrs, Proapoptotic gene): 1.76 ± 0.18
Ratio of sclerostin to vehicle, Hrk (apoptosis genes; hMSC, 6 hrs, Proapoptotic gene): 1.59 ± 0.39
Ratio of sclerostin to vehicle, Myd88 (apoptosis genes; hMSC, 6 hrs, Proapoptotic gene): 1.4 ± 0.31
Ratio of sclerostin to vehicle, Casper (apoptosis genes; [3]): 2.68 ± 0.28
Ratio of sclerostin to vehicle, I-TRAF (apoptosis genes; [3]): 2.05 ± 0.54
Ratio of sclerostin to vehicle, Mdm2 (apoptosis genes; [3]): 1.66 ± 0.34
Ratio of sclerostin to vehicle, Bak1 (apoptosis genes; [4]): 2.36 ± 0.74
Ratio of sclerostin to vehicle, Bax (apoptosis genes; [4]): 1.64 ± 0.3
Ratio of sclerostin to vehicle, Bcl10 (apoptosis genes; [4]): 1.84 ± 0.76
Ratio of sclerostin to vehicle, Blk (apoptosis genes; [4]): 1.83 ± 0.12
Ratio of sclerostin to vehicle, Myd88 (apoptosis genes; [4]): 2.64 ± 1.3
